Laboratory results taken from patent US20240115745A1 (3B PHARMACEUTICALS, published 2024).
*1 amine or outer side, *2 acyl side, *3 side chain or, on linkers, in order; H or OH if unused. Bridges are numbered along the chain shown (N, C = ends). Primed or numbered codes have the meaning given here. [ ]: non-standard residue; d: D form. The star is where a group is joined. mli = maleimide cyclization element: 3,4-maleimide inserted symmetrically, forming a vinyl thioether with each Cys sulfur; Ttds = 1,13-diamino-4,7,10-trioxatridecan-succinamic acid, NCCCOCCOCCOCCCNC(=O)CCC(=O)*; mli(DOTA-Ttd) = 3,4-N-(DOTA-Ttd)-maleimide bridging two Cys S atoms as vinyl thioethers; N4Ac = 6-carboxy-1,4,8,11-tetraazaundecane, NCCNCC(CNCCN)C(=O)*; Buur = n-butylaminocarbonyl blocking group, CCCCNC(=O)*; DOTA = O=C(O)CN1CCN(CC(=O)O)CCN(CC(=O)*)CCN(CC(=O)O)CC1; NODAGA = O=C(O)CN1CCN(CC(=O)O)CCN(C(CCC(=O)*)C(=O)O)CC1; Maleimide(3,4-diyl) = O=C1NC(=O)C([*:2])=C1[*:1]; Buur″ = n-butylaminocarbonyl, CCCCNC(=O)*; O2Oc = 3,6-dioxaoctanoic acid; β3hK = NCCCC[C@H](N)CC(=O)O; 4Amb = NCc1ccc(C(=O)O)cc1; hCys = N[C@@H](CCS)C(=O)O; Nle = CCCC[C@H](N)C(=O)O; Hexanoyl = CCCCCC(=O)*

How the values were obtained:
[1] = target: Recombinant human FAP (R&D systems, #3715-SE) (human, UniProt Q12884 26-760); assay: cell-based or functional assay
[2] = target: T1, fibroblast activation protein (FAP) on FAP-expressing human WI-38 fibroblasts (human, UniProt Q12884 1-760); assay: competitive FACS on WI-38 cells vs 3 nM Cy5-labeled probe; A = pIC50 >7.0
T1 construct: Endogenous FAP on WI-38 cells (ECACC) in the FACS assay; also called human FAP
Method: FAP-expressing human WI-38 fibroblasts (ECACC) were cultured in EMEM including 15% fetal bovine serum, 2 mM L-Glutamine and 1% Non-essential amino acids. Cells were detached with Accutase (Biolegend, #BLD-423201) and washed in FACS buffer (PBS including 1% FBS). Cells were diluted in FACS buffer to a final concentration of 100.000 cells per ml and 200 μl of the cell suspension are transferred to a u-shaped non-binding 96-well plate (Greiner). […] Cell were washed twice with FACS buffer and resuspended in 200 μl FACS buffer. Cells were analyzed in an Attune NxT flow cytometer. Median fluorescence intensities (Cy5 channel) was calculated by Attune NxT software and plotted against peptide concentrations. Four parameter logistic (4PL) curve fitting and pIC50 calculations were performed using ActivityBase software.

Binder | pIC50 Category (Activity), FRET-based FAP protease activity assay [1] [pIC50] | pIC50 Category (FACS) [2] [pIC50]
{DOTA-Ttds}-[Nle]CPPTEFCD[4Amb]R-NH2 (disulfide 2-8, By the running order it belongs to 1007) [compound DOTA-Ttds-Nle-[Cys-Pro-Pro-Thr-Glu-Phe-Cys]-Asp-Pamb-Arg-NH2 (1007)] | > 7 | > 7
{DOTA-Ttds}-[Nle]CPPTQFCD[4Amb]R-NH2 (linker 2-8 via Maleimide(3,4-diyl)) [compound DOTA-Ttds-Nle-[Cys(mli)-Pro-Pro-Thr-Gln-Phe-Cys]-Asp-Pamb-Arg-NH2 (2006)] | > 7 | > 7
Hexanoyl-CPPTQFCD-NH2 (linker 1-7 via mli) [compound Hex-[Cys(mli)-Pro-Pro-Thr-Gln-Phe-Cys]-Asp-NH2 (2001)] | > 7 | > 7
Hexanoyl-CPPTEFCD-NH2 (linker 1-7 via mli(DOTA-Ttd)) [compound Hex-[Cys(mli(DOTA-Ttd))-Pro-Pro-Thr-Glu-Phe-Cys]-Asp-NH2 (2020)] | > 7 | 
{DOTA-Ttds}-[Nle]CPPTEFCD-NH2 (linker 2-8 via mli) [compound DOTA-Ttds-Nle-[Cys(mli)-Pro-Pro-Thr-Glu-Phe-Cys]-Asp-NH2 (2007)] | > 7 | 
Buur-CPPTQFCDK(DOTA)-NH2 (linker 1-7 via mli) [compound Buur-[Cys(mli)-Pro-Pro-Thr-Gln-Phe-Cys]-Asp-Lys(DOTA)-NH2 (2014)] | > 7 | > 7
{DOTA-O2Oc}-[Nle]CPPTQFCD-NH2 (linker 2-8 via mli) [compound DOTA-O2Oc-Nle-[Cys(mli)-Pro-Pro-Thr-Gln-Phe-Cys]-Asp-NH2 (2004)] | > 7 | > 7
Hexanoyl-CPPTQFCDK(DOTA)-NH2 (linker 1-7 via mli) [compound Hex-[Cys(mli)-Pro-Pro-Thr-Gln-Phe-Cys]-Asp-Lys(DOTA)-NH2 (2012)] | > 7 | > 7
Hexanoyl-CPPTQFCDK(DOTA)-NH2 (disulfide 1-7; SMILES CCCCCC(=O)N[C@H]1CSSC[C@@H](C(=O)N[C@@H](CC(=O)O)C(=O)N[C@@H](CCCCNC(=O)CN2CCN(CC(=O)O)CCN(CC(=O)O)CCN(CC(=O)O)CC2)C(N)=O)NC(=O)[C@H](Cc2ccccc2)NC(=O)[C@H](CCC(N)=O)NC(=O)[C@H]([C@@H](C)O)NC(=O)[C@@H]2CCCN2C(=O)[C@@H]2CCCN2C1=O) [compound Hex-[Cys-Pro-Pro-Thr-Gln-Phe-Cys]-Asp-Lys(DOTA)-NH2 (1016)] | > 7 | > 7
{DOTA}-[Nle]CPPTQFCD-NH2 (linker 2-8 via mli) [compound DOTA-Nle-[Cys(mli)-Pro-Pro-Thr-Gln-Phe-Cys]-Asp-NH2 (2003)] | > 7 | > 7
{DOTA-Ttds}-[Nle]CPPTQFCD-NH2 (linker 2-8 via mli) [compound DOTA-Ttds-Nle-[Cys(mli)-Pro-Pro-Thr-Gln-Phe-Cys]-Asp-NH2 (2005)] | > 7 | > 7
Hexanoyl-CPPTEFC[β3hK](DOTA)-OH (linker 1-7 via Maleimide(3,4-diyl); SMILES CCCCCC(=O)N[C@H]1CSC2=C(SC[C@@H](C(=O)N[C@@H](CCCCNC(=O)CN3CCN(CC(=O)O)CCN(CC(=O)O)CCN(CC(=O)O)CC3)CC(=O)O)NC(=O)[C@H](Cc3ccccc3)NC(=O)[C@H](CCC(=O)O)NC(=O)[C@H]([C@@H](C)O)NC(=O)[C@@H]3CCCN3C(=O)[C@@H]3CCCN3C1=O)C(=O)NC2=O) [compound Hex-[Cys(mli)-Pro-Pro-Thr-Glu-Phe-Cys]-Bhk(DOTA)-OH (2011)] | > 7 | > 7

More lines, now with the values ahead:

pIC50 Category (Activity), FRET-based FAP protease activity assay [1] [pIC50] | pIC50 Category (FACS) [2] [pIC50] | Binder
> 7 |  | CPPTEFCD (HELM PEPTIDE1{[O=C(O)CN1CCN(CC(=O)O)CCN(CC(=O)[*:2])CCN(CC(=O)O)CC1].[Nle].C.P.P.T.E.F.C.D.[am]}$PEPTIDE1,PEPTIDE1,3:R3-9:R3$$$V2.0; SMILES CCCC[C@H](NC(=O)CN1CCN(CC(=O)O)CCN(CC(=O)O)CCN(CC(=O)O)CC1)C(=O)N[C@H]1CSSC[C@@H](C(=O)N[C@@H](CC(=O)O)C(N)=O)NC(=O)[C@H](Cc2ccccc2)NC(=O)[C@H](CCC(=O)O)NC(=O)[C@H]([C@@H](C)O)NC(=O)[C@@H]2CCCN2C(=O)[C@@H]2CCCN2C1=O) [compound DOTA-Nle-[Cys-Pro-Pro-Thr-Glu-Phe-Cys]-Asp-NH2 (1004)]
> 7 |  | {DOTA-Ttds}-[Nle]CPPTEFCD-NH2 (disulfide 2-8) [compound DOTA-Ttds-Nle-[Cys-Pro-Pro-Thr-Glu-Phe-Cys]-Asp-NH2 (1003)]
> 7 | > 7 | Hexanoyl-CPPTEFCDK(DOTA)-NH2 (disulfide 1-7; SMILES CCCCCC(=O)N[C@H]1CSSC[C@@H](C(=O)N[C@@H](CC(=O)O)C(=O)N[C@@H](CCCCNC(=O)CN2CCN(CC(=O)O)CCN(CC(=O)O)CCN(CC(=O)O)CC2)C(N)=O)NC(=O)[C@H](Cc2ccccc2)NC(=O)[C@H](CCC(=O)O)NC(=O)[C@H]([C@@H](C)O)NC(=O)[C@@H]2CCCN2C(=O)[C@@H]2CCCN2C1=O) [compound Hex-[Cys-Pro-Pro-Thr-Glu-Phe-Cys]-Asp-Lys(DOTA)-NH2 (1013)]
> 7 | > 7 | Hexanoyl-CPPTEFCDK(N4Ac)-NH2 (disulfide 1-7; SMILES CCCCCC(=O)N[C@H]1CSSC[C@@H](C(=O)N[C@@H](CC(=O)O)C(=O)N[C@@H](CCCCNC(=O)C(CNCCN)CNCCN)C(N)=O)NC(=O)[C@H](Cc2ccccc2)NC(=O)[C@H](CCC(=O)O)NC(=O)[C@H]([C@@H](C)O)NC(=O)[C@@H]2CCCN2C(=O)[C@@H]2CCCN2C1=O) [compound Hex-[Cys-Pro-Pro-Thr-Glu-Phe-Cys]-Asp-Lys(N4Ac)-NH2 (1021)]
> 7 | > 7 | Buur-CPPTEFCDK(DOTA)-NH2 (disulfide 1-7; SMILES CCCCNC(=O)N[C@H]1CSSC[C@@H](C(=O)N[C@@H](CC(=O)O)C(=O)N[C@@H](CCCCNC(=O)CN2CCN(CC(=O)O)CCN(CC(=O)O)CCN(CC(=O)O)CC2)C(N)=O)NC(=O)[C@H](Cc2ccccc2)NC(=O)[C@H](CCC(=O)O)NC(=O)[C@H]([C@@H](C)O)NC(=O)[C@@H]2CCCN2C(=O)[C@@H]2CCCN2C1=O) [compound Buur-[Cys-Pro-Pro-Thr-Glu-Phe-Cys]-Asp-Lys(DOTA)-NH2 (1015)]
> 7 | > 7 | Hexanoyl-CPPTEFCDK(NODAGA)-NH2 (disulfide 1-7; SMILES CCCCCC(=O)N[C@H]1CSSC[C@@H](C(=O)N[C@@H](CC(=O)O)C(=O)N[C@@H](CCCCNC(=O)CCC(C(=O)O)N2CCN(CC(=O)O)CCN(CC(=O)O)CC2)C(N)=O)NC(=O)[C@H](Cc2ccccc2)NC(=O)[C@H](CCC(=O)O)NC(=O)[C@H]([C@@H](C)O)NC(=O)[C@@H]2CCCN2C(=O)[C@@H]2CCCN2C1=O) [compound Hex-[Cys-Pro-Pro-Thr-Glu-Phe-Cys]-Asp-Lys(NODAGA)-NH2 (1020)]
> 7 | > 7 | Hexanoyl-[hCys]PPTQF[hCys]D-NH2 (disulfide 1-7) [compound Hex-[Hcy-Pro-Pro-Thr-Gln-Phe-Hcy]-Asp-NH2 (2002)]
> 7 | > 7 | MCPPTEFCDHFRD (HELM PEPTIDE1{M.C.P.P.T.E.F.C.D.H.F.R.D.[am]}$PEPTIDE1,PEPTIDE1,2:R3-8:R3$$$V2.0; SMILES CSCC[C@H](N)C(=O)N[C@H]1CSSC[C@@H](C(=O)N[C@@H](CC(=O)O)C(=O)N[C@@H](Cc2c[nH]cn2)C(=O)N[C@@H](Cc2ccccc2)C(=O)N[C@@H](CCCNC(=N)N)C(=O)N[C@@H](CC(=O)O)C(N)=O)NC(=O)[C@H](Cc2ccccc2)NC(=O)[C@H](CCC(=O)O)NC(=O)[C@H]([C@@H](C)O)NC(=O)[C@@H]2CCCN2C(=O)[C@@H]2CCCN2C1=O) [compound H-Met-[Cys-Pro-Pro-Thr-Glu-Phe-Cys]-Asp-His-Phe-Arg-Asp-NH2 (1001)]
> 7 | > 7 | {Buur″}-CPPTEFC[β3hK](DOTA)-OH (disulfide 1-7; SMILES CCCCNC(=O)N[C@H]1CSSC[C@@H](C(=O)N[C@@H](CCCCNC(=O)CN2CCN(CC(=O)O)CCN(CC(=O)O)CCN(CC(=O)O)CC2)CC(=O)O)NC(=O)[C@H](Cc2ccccc2)NC(=O)[C@H](CCC(=O)O)NC(=O)[C@H]([C@@H](C)O)NC(=O)[C@@H]2CCCN2C(=O)[C@@H]2CCCN2C1=O) [compound Buur-[Cys-Pro-Pro-Thr-Glu-Phe-Cys]-Bhk(DOTA)-OH (1014)]
> 7 | > 7 | Hexanoyl-CPPTEFC[β3hK](DOTA)-OH (disulfide 1-7; SMILES CCCCCC(=O)N[C@H]1CSSC[C@@H](C(=O)N[C@@H](CCCCNC(=O)CN2CCN(CC(=O)O)CCN(CC(=O)O)CCN(CC(=O)O)CC2)CC(=O)O)NC(=O)[C@H](Cc2ccccc2)NC(=O)[C@H](CCC(=O)O)NC(=O)[C@H]([C@@H](C)O)NC(=O)[C@@H]2CCCN2C(=O)[C@@H]2CCCN2C1=O) [compound Hex-[Cys-Pro-Pro-Thr-Glu-Phe-Cys]-Bhk(DOTA)-OH (1012)]
> 7 | > 7 | Hexanoyl-CPPTEFCDHFRD-NH2 (disulfide 1-7) [compound Hex-[Cys-Pro-Pro-Thr-Glu-Phe-Cys]-Asp-His-Phe-Arg-Asp-NH2 (1002)]
